From the Immune Epitope Database (IEDB)

How the values were obtained:
Assay in all cases: IEDB peptide-MHC binding, cellular MHC/competitive/fluorescence; ≥ and ≤ were set here for values at or beyond the usual limits of such assays
HLA-A*02:03 = biological target: HLA-A*02:03
HLA-A*68:02 = biological target: HLA-A*68:02
HLA-A*02:06 = biological target: HLA-A*02:06
HLA-A*02:01 = biological target: HLA-A*02:01
HLA-A*02:02 = biological target: HLA-A*02:02
HLA-A*68:01 = details: source organism: Hepatitis B virus
[1] = source organism: Vaccinia virus WR
[2] = source organism: Influenza A virus
[3] = source organism: Mammarenavirus brazilense

Row | Sequence | IC50 (HLA-A*02:03; [1]) | IC50 (HLA-A*68:02; [1]) | IC50 (HLA-A*02:06; [1]) | IC50 (HLA-A*02:01; [1]) | IC50 (HLA-A*02:02; [1]) | IC50 (HLA-A*02:03; [2]) | IC50 (HLA-A*68:02; [2]) | IC50 (HLA-A*02:06; [2]) | IC50 (HLA-A*02:01; [2]) | IC50 (HLA-A*02:02; [2]) | further results
1 | YVKNGTKGKL | 7.17 µM | 32.6 µM | 28.5 µM | 40.6 µM | 5.72 µM | – | – | – | – | – | –
2 | ATVSADPL | – | – | – | – | – | ≥ 70 µM | 42.3 µM | 21.5 µM | ≥ 70 µM | 52 µM | –
3 | PAHLINKLL | 6.31 µM | 11.2 µM | 42.5 µM | 11.3 µM | 6.69 µM | – | – | – | – | – | –
4 | ATKRIRMA | – | – | – | – | – | 11.9 µM | 58.6 µM | ≥ 70 µM | 42.9 µM | 59.4 µM | –
5 | DVEKRILNT | 6.72 µM | ≥ 70 µM | ≥ 70 µM | 9.33 µM | 5.82 µM | – | – | – | – | – | –
6 | VVKDKIKLPT | 8.6 µM | 42.7 µM | 29.1 µM | 40.2 µM | 37.3 µM | – | – | – | – | – | –
7 | DIDLLFNEKL | 26.7 µM | 15.8 µM | 25.7 µM | 5.79 µM | 11.2 µM | – | – | – | – | – | –
8 | SILSPFLPL | – | – | – | – | – | – | – | – | – | – | IC50 (HLA-A*68:01): ≥ 70 µM
9 | AIDRQVSVKL | 13.1 µM | 52.3 µM | 31.9 µM | 14 µM | 7.9 µM | – | – | – | – | – | –
10 | ATRRMIQL | – | – | – | – | – | ≥ 70 µM | ≥ 70 µM | ≥ 70 µM | ≥ 70 µM | ≥ 70 µM | –
11 | PACVYGLA | – | – | – | – | – | ≥ 70 µM | 52.3 µM | ≥ 70 µM | 68.7 µM | ≥ 70 µM | –
12 | EIITGNKVKT | ≥ 70 µM | ≥ 70 µM | ≥ 70 µM | ≥ 70 µM | ≥ 70 µM | – | – | – | – | – | –
13 | DILQMREIIT | 56.2 µM | 20.3 µM | 17.7 µM | 31.1 µM | 45.5 µM | – | – | – | – | – | –
14 | ICFWSTLFFT | – | – | – | – | – | – | – | – | – | – | IC50 (HLA-A*02:03; [3]): 35.1 µM; IC50 (HLA-A*68:02; [3]): 47.6 µM; IC50 (HLA-A*02:06; [3]): 34.9 µM; IC50 (HLA-A*02:01; [3]): 11.9 µM; IC50 (HLA-A*02:02; [3]): 33.2 µM
15 | TTELNIVDEI | ≥ 70 µM | 10.7 µM | 21.4 µM | 35.9 µM | 38.7 µM | – | – | – | – | – | –
16 | ALSYSTGA | – | – | – | – | – | 25.8 µM | ≥ 70 µM | ≥ 70 µM | ≥ 70 µM | ≥ 70 µM | –

Row | Sequence | IC50 (HLA-A*02:03; [1]) | IC50 (HLA-A*68:02; [1]) | IC50 (HLA-A*02:06; [1]) | IC50 (HLA-A*02:01; [1]) | IC50 (HLA-A*02:02; [1]) | IC50 (HLA-A*02:03; [2]) | IC50 (HLA-A*68:02; [2]) | IC50 (HLA-A*02:06; [2]) | IC50 (HLA-A*02:01; [2]) | IC50 (HLA-A*02:02; [2]) | further results
17 | EIDVSEVKT | ≥ 70 µM | 20 µM | ≥ 70 µM | ≥ 70 µM | 46 µM | – | – | – | – | – | –
18 | CLEAKTHFST | 11.1 µM | ≥ 70 µM | ≥ 70 µM | 49.7 µM | 12.4 µM | – | – | – | – | – | –
19 | ATAILRKA | – | – | – | – | – | 42.3 µM | ≥ 70 µM | ≥ 70 µM | 52.9 µM | 61.8 µM | –
20 | SAAFEDLRLL | – | – | – | – | – | 13.6 µM | ≥ 70 µM | 23.5 µM | 42.7 µM | 21.4 µM | –
21 | PTLFGRGVI | 6.73 µM | ≥ 70 µM | 64.9 µM | ≥ 70 µM | 30.3 µM | – | – | – | – | – | –
22 | ELTSNCTRT | ≥ 70 µM | ≥ 70 µM | 46.2 µM | 48.7 µM | ≥ 70 µM | – | – | – | – | – | –
23 | IAEYIAGLKI | 23 µM | 5.85 µM | 10.2 µM | 7.83 µM | 28.6 µM | – | – | – | – | – | –
24 | GANGSTAEQL | 45.3 µM | 13.3 µM | 55.2 µM | 67.6 µM | 7.28 µM | – | – | – | – | – | –
25 | GTKGKLYIAL | 7.84 µM | 7.51 µM | 37.4 µM | 16.6 µM | 9.07 µM | – | – | – | – | – | –
26 | DAKRNSKSL | 49.7 µM | ≥ 70 µM | ≥ 70 µM | ≥ 70 µM | 13.7 µM | – | – | – | – | – | –
27 | PAEMLASI | – | – | – | – | – | ≥ 70 µM | ≥ 70 µM | ≥ 70 µM | ≥ 70 µM | ≥ 70 µM | –
28 | LIISTDQDT | ≥ 70 µM | ≥ 70 µM | ≥ 70 µM | 30.1 µM | ≥ 70 µM | – | – | – | – | – | –
29 | VTKSSSWKDV | 41.9 µM | 40.4 µM | ≥ 70 µM | ≥ 70 µM | ≥ 70 µM | – | – | – | – | – | –
30 | TVPSERGL | – | – | – | – | – | ≥ 70 µM | 65 µM | ≥ 70 µM | 52.9 µM | ≥ 70 µM | –
31 | NVKDYSIV | – | – | – | – | – | 6.53 µM | 11.3 µM | ≥ 70 µM | ≥ 70 µM | ≥ 70 µM | –
